The values that follow come from US20260070986A1.

In assay [1] the target is human CD16A-mFc (158F) (sAg_107) (human) (UniProt P08637). The assay is described as follows: ELISA on coated human CD16A-mFc (158F), anti-mouse HRP detection. In general terms: In an ELISA, binding on a coated surface is turned into a signal by an enzyme label.
Assay [2] concerns the target CD16A endogenously expressed on primary human NK cells (human) (UniProt P08637). The assay is described as follows: flow cytometry on primary human NK cells, biotinylated antibody, 37 C, with 10 mg/mL polyclonal human IgG as competitor, mean of 4.
The target is the same in assay [3]. The experiment in a line: flow cytometry on primary human NK cells, 37 °C, biotinylated antibody, streptavidin-FITC, without polyclonal human IgG. For orientation: In flow cytometry, cells or beads pass a laser one at a time.
Assay [4] shares this target. The assay is described as follows: flow cytometry on primary human NK cells, biotinylated antibody, 37 C, without IgG, mean of 4.
Assay [5] addresses human CD16A-mFc (158V) (sAg_149) (human) (UniProt P08637). The experiment in a line: ELISA on coated human CD16A-mFc (158V), anti-mouse HRP detection.
For assay [6], the target named is human CD16A-mFc (158F) (sAg_107) (human) (UniProt P08637). The experiment in a line: ELISA, plate coated with human CD16A-mFc (158F), one-site fit, mean of 3.
Assay [7] deals with recombinant human FcγRIIB (CD32B), biotinylated (human) (UniProt P31994). The experiment in a line: SPR (Biacore), 37 °C, biotin-captured human CD32B as ligand, steady-state affinity fit. Background: In SPR one partner is held on a chip, and binding of the other changes the refractive index at the surface.
Chain of recombinant human FcγRIIB (CD32B), biotinylated (human) (P31994 43-217 limits assumed): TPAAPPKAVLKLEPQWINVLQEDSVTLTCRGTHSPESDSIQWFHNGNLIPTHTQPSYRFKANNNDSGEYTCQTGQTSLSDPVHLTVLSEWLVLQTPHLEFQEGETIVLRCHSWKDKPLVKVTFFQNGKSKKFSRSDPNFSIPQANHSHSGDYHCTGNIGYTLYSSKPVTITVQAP
For assay [8], the target named is recombinant cynomolgus FcγRIIB/C (CD32B/C), biotinylated (cynomolgus). The experiment in a line: SPR (Biacore), 37 °C, biotin-captured cynomolgus CD32B/C as ligand, steady-state affinity fit.
Assay [9] addresses recombinant murine FcγRIIB (CD32), biotinylated (murine) (UniProt P08101). The assay is described as follows: SPR (Biacore T200), 37 C, biotin-captured receptor, steady-state affinity.
Assay [10] deals with recombinant human FcγRIIA (CD32A), biotinylated (human) (UniProt P12318). The assay is described as above.
Chain of recombinant human FcγRIIA (CD32A), biotinylated (human) (P12318 34-218 limits assumed): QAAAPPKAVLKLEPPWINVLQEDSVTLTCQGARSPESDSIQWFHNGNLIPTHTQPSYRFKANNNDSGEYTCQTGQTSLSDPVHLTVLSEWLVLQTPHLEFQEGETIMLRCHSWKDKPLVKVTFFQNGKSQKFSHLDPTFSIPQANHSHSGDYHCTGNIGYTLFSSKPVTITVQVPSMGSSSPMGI
The target in assay [11] is recombinant cynomolgus FcγRIIA (CD32A), biotinylated (cynomolgus). The assay is described as follows: SPR (Biacore), 37 °C, biotin-captured cynomolgus CD32A as ligand, steady-state affinity fit.
The target in assay [12] is recombinant human FcγRIIC (CD32C), biotinylated (human) (UniProt P31995). The experiment in a line: SPR (Biacore), 37 °C, biotin-captured human CD32C as ligand, steady-state affinity fit.
Chain of recombinant human FcγRIIC (CD32C), biotinylated (human) (P31995 43-223 limits assumed): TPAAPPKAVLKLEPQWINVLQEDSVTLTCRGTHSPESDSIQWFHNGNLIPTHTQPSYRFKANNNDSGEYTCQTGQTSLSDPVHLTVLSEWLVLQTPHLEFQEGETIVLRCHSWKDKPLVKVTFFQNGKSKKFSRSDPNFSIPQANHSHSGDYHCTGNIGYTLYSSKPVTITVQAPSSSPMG

Chain of control antibody MOR208 (anti-CD19 human IgG1 Fc enhanced) (HC): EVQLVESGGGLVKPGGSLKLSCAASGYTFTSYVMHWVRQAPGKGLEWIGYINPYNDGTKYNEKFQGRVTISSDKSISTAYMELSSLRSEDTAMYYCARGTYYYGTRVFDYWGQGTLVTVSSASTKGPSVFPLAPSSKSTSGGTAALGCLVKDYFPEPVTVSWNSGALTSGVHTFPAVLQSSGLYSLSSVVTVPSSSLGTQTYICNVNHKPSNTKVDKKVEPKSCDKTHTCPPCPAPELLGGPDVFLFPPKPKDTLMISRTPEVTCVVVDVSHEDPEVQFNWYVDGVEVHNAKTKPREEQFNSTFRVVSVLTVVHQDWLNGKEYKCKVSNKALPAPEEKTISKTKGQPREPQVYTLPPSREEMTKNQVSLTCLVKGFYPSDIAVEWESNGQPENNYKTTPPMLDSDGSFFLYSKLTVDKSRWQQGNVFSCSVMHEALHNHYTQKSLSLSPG
Chain of control antibody MOR208 (anti-CD19 human IgG1 Fc enhanced) (LC): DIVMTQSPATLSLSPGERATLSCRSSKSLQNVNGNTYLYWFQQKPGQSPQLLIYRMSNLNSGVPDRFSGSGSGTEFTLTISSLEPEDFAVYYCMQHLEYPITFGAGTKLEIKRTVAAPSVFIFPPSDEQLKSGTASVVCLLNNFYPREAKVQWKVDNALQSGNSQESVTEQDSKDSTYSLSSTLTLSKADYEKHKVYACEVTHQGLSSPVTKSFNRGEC
Chain of CD16A endogenously expressed on primary human NK cells (human) (P08637 17-254 limits assumed): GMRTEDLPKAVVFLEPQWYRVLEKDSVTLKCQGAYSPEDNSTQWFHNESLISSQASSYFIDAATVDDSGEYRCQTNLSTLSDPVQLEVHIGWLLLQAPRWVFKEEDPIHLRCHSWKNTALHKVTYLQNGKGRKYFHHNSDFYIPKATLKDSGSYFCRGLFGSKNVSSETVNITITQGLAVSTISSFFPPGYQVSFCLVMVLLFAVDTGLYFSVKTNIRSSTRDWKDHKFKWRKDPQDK
Chain of human CD16A-mFc (158F) (sAg_107) (human) (P08637 17-208 limits assumed): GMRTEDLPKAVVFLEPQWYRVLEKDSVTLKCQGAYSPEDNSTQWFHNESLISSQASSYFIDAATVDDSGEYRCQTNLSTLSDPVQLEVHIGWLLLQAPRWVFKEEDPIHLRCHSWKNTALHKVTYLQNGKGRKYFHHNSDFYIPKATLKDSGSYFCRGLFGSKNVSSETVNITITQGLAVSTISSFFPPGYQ
Chain of recombinant murine FcγRIIB (CD32), biotinylated (murine) (P08101 30-207 limits assumed): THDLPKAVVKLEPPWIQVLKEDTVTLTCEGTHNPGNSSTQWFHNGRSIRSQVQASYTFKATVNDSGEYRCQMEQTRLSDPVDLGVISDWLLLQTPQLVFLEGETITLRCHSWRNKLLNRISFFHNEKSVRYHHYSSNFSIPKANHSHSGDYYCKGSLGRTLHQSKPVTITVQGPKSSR

The EC50 (read off the curve) is the concentration needed to bring the measured effect to its halfway point. Broadly, the Kd is a measure of binding affinity in units of concentration. Turning to anti-human CD16 antibody clone 3G8, the EC50 (read off the curve) turned out to be 0.03 nM in [1], 0.4 nM in assay [3] and 0.3 nM in assay [5]. The values for the Kd in assay [2], in [4] and in assay [6] were 54.6 nM, 0.3 nM and 0.02 nM, respectively.
In the case of “control antibody MOR208 (anti-CD19 human IgG1 Fc enhanced)”, the dissociation constant (Kd) in assay [7] turned out to be 821 nM; in assay [8] it was 351 nM; in assay [9] it was 1750 nM; in assay [10] it was 223 nM; in assay [11], 263 nM; in assay [12], 474 nM.
